Assay [1] addresses active TGFβ3 (UniProt P10600). Description: blocking of active TGFβ3 (1 ng/mL) in solution, 30 min in PBS; free TGFβ3 by ELISA.
Assay [2] deals with T1, Human active TGFβ1 (human, UniProt P01137 279-390).
T1 construct: mature; also called TGFB1
Put plainly: blocking of active TGFβ1 (1 ng/mL) in solution, 30 min in PBS; free TGFβ1 by ELISA. From the text: TGFβ causes a wide range of immune suppression in several immune cell types including inhibition of crucial early innate IFN responses.
A general note: In an ELISA, binding on a coated surface is turned into a signal by an enzyme label.

A word on the IC50: it is the concentration needed to halve the response being measured.

T1 sequence (P01137 279-390 limits assumed): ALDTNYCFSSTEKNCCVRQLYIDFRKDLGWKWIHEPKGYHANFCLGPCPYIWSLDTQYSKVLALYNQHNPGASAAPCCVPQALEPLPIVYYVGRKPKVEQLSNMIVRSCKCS
active TGFβ3, sequence (P10600 301-412): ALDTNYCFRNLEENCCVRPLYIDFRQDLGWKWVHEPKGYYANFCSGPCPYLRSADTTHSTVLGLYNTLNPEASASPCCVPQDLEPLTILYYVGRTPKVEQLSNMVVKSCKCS

On to FIST (monovalent FIST; IL2-sTBRII), for which the IC50 in assay [1] came out at 3.6 nM; in assay [2], 1.29 nM.

B1: TβRII isoform 2 (receptor, UniProt P37173-2 24-184, looked up)
chain: IPPHVQKSDVEMEAQKDEIICPSCNRTAHPLRHINNDMIVTDNNGAVKFPQLCKFCDVRFSTCDNQKSCMSNCSITSICEKPQEVCVAVWRKNDENITLETVCHDPKLPYHDFILEDAASPKCIMKEKKKPGETFFMCSCSSDECNDNIIFSEEYNTSNPD
notes: also called TβRll (isoform II); control (TβRII isoform 2)
Molecule B1 gave a half-maximal inhibitory concentration (IC50) in assay [2] of 0.02 nM.

(Values after patent US20230364186A1 (CURA THERAPEUTICS, published 2023).)
